Assay results as given in patent US20240148898A1.
Values belong to the binder of their own block, whether it stands above or below them.

Experiments:
[1] = molecular target: recombinant PD-L1 protein (PD-1 ligand), species not stated; assay: ELISA
[2] = molecular target: recombinant PD-L1 protein (PD-1 ligand), species not stated; assay: MST

Chain of recombinant PD-L1 protein (PD-1 ligand), species not stated (Q9NZQ7 whole entry): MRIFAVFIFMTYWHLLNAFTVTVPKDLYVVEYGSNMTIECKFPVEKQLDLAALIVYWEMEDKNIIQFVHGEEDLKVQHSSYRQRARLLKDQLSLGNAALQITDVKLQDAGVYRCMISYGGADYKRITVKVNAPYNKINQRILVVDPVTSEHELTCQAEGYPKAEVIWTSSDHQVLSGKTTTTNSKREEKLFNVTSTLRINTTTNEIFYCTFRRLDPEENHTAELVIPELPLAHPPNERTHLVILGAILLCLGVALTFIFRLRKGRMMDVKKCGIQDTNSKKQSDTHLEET

- Kd [1]: 71.2 nM
B1: huHF-αPD-L1 HCDR3 (CD loop), Examples 1-6 (designed binder)
chain: MTTASTSQVRQNYHQDSEAAINRQINLELYASYVYLSMSYYFDRDDVALKNFAKYFLHQSHEEREHAEKLMKLQNQRGGRIFLQDIKKPDCDDWESGLNAMECALHLEKNVNQSLLELHKLATDKNDSGHGYSYGAFDYPHLCDFIETHYLNEQVKAIKELGDHVTNLRKMGAPESGLAEYLFDKHTLGDSDNES

- Kd [2]: 72.1 nM
B2: huHF-TPP1 (AB loop) (designed binder, not shown: small tags and cut ends)
chain: MTTASTSQVRQNYHQDSEAAINRQINLELYASYVYLSMSYYFDRDDSGQYASYHCWCWRDPGRSGGSKVALKNFAKYFLHQSHEEREHAEKLMKLQNQRGGRIFLQDIKKPDCDDWESGLNAMECALHLEKNVNQSLLELHKLATDKNDPHLCDFIETHYLNEQVKAIKELGDHVTNLRKMGAPESGLAEYLFDKHTLGDSDNES

- Kd [2]: 115 nM
B3: huHF-TPP1 (CD loop) (designed binder, not shown: small tags and cut ends)
chain: MTTASTSQVRQNYHQDSEAAINRQINLELYASYVYLSMSYYFDRDDVALKNFAKYFLHQSHEEREHAEKLMKLQNQRGGRIFLQDIKKPDCDDWESGLNAMECALHLEKNVNQSLLELHKLATDKNDSGQYASYHCWCWRDPGRSGGSKPHLCDFIETHYLNEQVKAIKELGDHVTNLRKMGAPESGLAEYLFDKHTLGDSDNES
